Results published in US20130266574A1 (Regeneron, published 2013).
Read-outs that look alike come from different tables or passages of the source.

T1: bovine LPL (bovine, UniProt P11151 29-478)
T1 sequence (looked up): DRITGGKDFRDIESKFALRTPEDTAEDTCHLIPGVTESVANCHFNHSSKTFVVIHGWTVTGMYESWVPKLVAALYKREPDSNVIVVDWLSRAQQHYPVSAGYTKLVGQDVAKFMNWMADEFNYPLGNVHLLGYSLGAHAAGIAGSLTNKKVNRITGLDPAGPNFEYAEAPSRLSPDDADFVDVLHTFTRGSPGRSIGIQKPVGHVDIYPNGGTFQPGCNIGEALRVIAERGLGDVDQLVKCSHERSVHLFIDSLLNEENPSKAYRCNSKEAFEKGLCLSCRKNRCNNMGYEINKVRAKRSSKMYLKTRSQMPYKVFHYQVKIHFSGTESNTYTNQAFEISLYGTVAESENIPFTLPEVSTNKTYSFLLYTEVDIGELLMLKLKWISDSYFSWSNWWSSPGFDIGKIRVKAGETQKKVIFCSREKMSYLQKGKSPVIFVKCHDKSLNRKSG

T2: cynomolgus monkey ANGPTL4 N-terminal region (amino acid residues 1-130 of SEQ ID NO:490) with a C-terminal … (cynomolgus monkey (Macaca fascicularis), UniProt Q9BY76 26-130 (human entry))
T2 construct: also called MfANGPTL4(1-130)-His
T2 chain: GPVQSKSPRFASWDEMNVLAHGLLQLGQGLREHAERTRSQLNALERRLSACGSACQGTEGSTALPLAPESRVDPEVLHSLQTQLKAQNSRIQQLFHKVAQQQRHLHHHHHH

B1: amino acid residues 26-148 of human ANGPTL4 fused in-line to mouse IgG2a (hANGPTL4-mFc) (Fc fusion)
chain: GPVQSKSPRFASWDEMNVLAHGLLQLGQGLREHAERTRSQLSALERRLSACGSACQGTEGSTDLPLAPESRVDPEVLHSLQTQLKAQNSRIQQLFHKVAQQQRHLEKQHLRIQHLQSQFGLLDPGSLEFALERNSGEPRGPTIKPCPPCKCPAPNLLGGPSVFIFPPKIKDVLMISLSPIVTCVVVDVSEDDPDVQISWFVNNVEVHTAQTQTHREDYNSTLRVVSALPIQHQDWMSGKEFKCKVNNKDLPAPIERTISKPKGSVRAPQVYVLPPPEEEMTKKQVTLTCMVTDFMPEDIYVEWTNNGKTELNYKNTEPVLDSDGSYFMYSKLRVEKKNWVERNSYSCSVVHEGLHNHHTTKSFSRTPGK
B2: full-length hANGPTL4 (amino acid residues 26-406 of SEQ ID NO:476) with a C-terminal hexa-histidine tag (ligand)
chain: GPVQSKSPRFASWDEMNVLAHGLLQLGQGLREHAERTRSQLSALERRLSACGSACQGTEGSTDLPLAPESRVDPEVLHSLQTQLKAQNSRIQQLFHKVAQQQRHLEKQHLRIQHLQSQFGLLDHKHLDHEVAKPARRKRLPEMAQPVDPAHNVSRLHRLPRDCQELFQVGERQSGLFEIQPQGSPPFLVNCKMTSDGGWTVIQRRHDGSVDFNRPWEAYKAGFGDPHGEFWLGLEKVHSITGDRNSRLAVQLRDWDGNAELLQFSVHLGGEDTAYSLQLTAPVAGQLGATTVPPSGLSVPFSTWDQDHDLRRDKNCAKSLSGGWWFGTCSHSNLNGQYFRSIPQQRQKLKKGIFWKTWRGRYYPLQATTMLIQPMAAEAASHHHHHH

Tests used:
bovine LPL [1] = target: T1, bovine LPL; experiment: cell-based or functional assay
bovine LPL [2] = target: T1, bovine LPL; experiment: cell-based or functional assay; remark: listed apart in the source
bovine LPL [3] = target: T1, bovine LPL; experiment: cell-based or functional assay; remark: listed apart in the source
[4] = target: T2, cynomolgus monkey ANGPTL4 N-terminal …; experiment: SPR (Biacore), 25° C., pH 5.75, antigen amino-coupled 1,028 RU; Fab, not full mAb; pH 5.75
Protocol: (§1) Kinetic analysis was performed to measure kₐ and kd, and KD values and half-life of antigen/antibody complex dissociation were calculated. The results are shown in Table 4 (H1H268P) and Table 5 (H1H284P).

[5] = target: B1; experiment: SPR (Biacore), 25° C., pH 7.2, antigen captured by anti-mFc
Protocol: as §1

[6] = target: B2; experiment: SPR (Biacore), 25° C., pH 5.75, antigen amino-coupled 450 RU
Protocol: as §1

[7] = target: B2; experiment: SPR (Biacore), 25° C., pH 7.2, antigen amino-coupled 450 RU
Protocol: as §1

[8] = target: B1; experiment: SPR (Biacore), 25° C., pH 5.75, antigen captured by anti-mFc
Protocol: as §1

[9] = target: T2, cynomolgus monkey ANGPTL4 N-terminal …; experiment: SPR (Biacore), 25° C., pH 5.75, antigen amino-coupled 1,028 RU
Protocol: as §1

[10] = target: T2, cynomolgus monkey ANGPTL4 N-terminal …; experiment: SPR (Biacore), 25° C., pH 7.2, antigen amino-coupled 1,028 RU
Protocol: as §1

Row | EC50 (nM) of the ANGPTL4 protein in the LPL assay (bovine LPL [2]) [nM] | EC50 (nM) of the ANGPTL4 protein in the LPL inhibition assay (bovine LPL [3]) [nM] | Kd [4] [nM] | Kd [5] [nM] | koff [5] [s⁻¹] | kon [5] [M⁻¹ s⁻¹] | t1/2 [5] [min] | Kd [6] [nM] | koff [6] [s⁻¹] | kon [6] [M⁻¹ s⁻¹] | t1/2 [6] [min] | Kd [7] [nM] | koff [7] [s⁻¹] | kon [7] [M⁻¹ s⁻¹] | t1/2 [7] [min] | Kd [8] [nM] | koff [8] [s⁻¹] | kon [8] [M⁻¹ s⁻¹] | t1/2 [8] [min] | koff [9] [s⁻¹] | Molecule | also measured
1 | – | – | – | – | – | – | – | – | – | – | – | – | – | – | – | – | – | – | – | – | cynomolgus monkey ANGPTL4 N-terminal region (amino acid residues 26-148) with an N-terminal hexa-histidine tag (from UniProt Q9BY76 26-148) (ligand) | EC50 (nM) of the ANGPTL4 protein in the LPL assay (bovine LPL [1]): 3.89 nM
2 | 0.63 | – | – | – | – | – | – | – | – | – | – | – | – | – | – | – | – | – | – | – | mANGPTL4-His [R26-S410 of mANGPTL4 (SEQ ID NO: 478) fused with an AS linker to a C-terminal 6-histidine tag] (ligand) RPAQPEPPRFASWDEMNLLAHGLLQLGHGLREHVERTRGQLGALERRMAACGNACQGPKGKDAPFKDSEDRVPEGQTPETLQSLQTQLKAQNSKIQQLFQKVAQQQRYLSKQNLRIQNLQSQIDLLAPTHLDNGVDKTSRGKRLPKMTQLIGLTPNATHLHRPPRDCQELFQEGERHSGLFQIQPLGSPPFLVNCEMTSDGGWTVIQRRLNGSVDFNQSWEAYKDGFGDPQGEFWLGLEKMHSITGNRGSQLAVQLQDWDGNAKLLQFPIHLGGEDTAYSLQLTEPTANELGATNVSPNGLSLPFSTWDQDHDLRGDLNCAKSLSGGWWFGTCSHSNLNGQYFHSIPRQRQERKKGIFWKTWKGRYYPLQATTLLIQPMEATAASASHHHHHH | –
3 | 0.5 | 0.29 | – | – | – | – | – | – | – | – | – | – | – | – | – | – | – | – | – | – | B1 | –
4 | – | – | 8.54 | 0.823 | 0.000202 | 245000 | 57 | 1.44 | 0.00173 | 1.21e+06 | 7 | 0.31 | 0.000344 | 1.11e+06 | 34 | 3.4 | 0.0016 | 472000 | 7 | 0.00619 | H1H284P Fab fragment (Fab, V domains shown, Fab made by papain digestion of H1H284P (IgG1); also called H1H284 Fab) VH: QVQLVESGGGVVQPGRSLRLSCAASGFTFSSYGMHWVRQAPGKGLEWMAVISFDGGNKNNADSVKGRFTISRDNSKNTLYLQMNSLRAEDTAVYYCAKEGDRSGHPYFYYYGLDVWGQGTTVTVS VL: DIQLTQSPSFLSASVGDRVTITCWASQGISSYLAWYQQKPGKAPKLLIYAASTLQSGVPSRFSGSGSETEFTLTISSLQPEDFATYYCQQLHSYPLTFGGGTKVEIK | kon [9]: 724000 M⁻¹ s⁻¹; t1/2 [9]: 2 min; Kd [10]: 10.1 nM; koff [10]: 0.00313 s⁻¹; kon [10]: 310000 M⁻¹ s⁻¹; t1/2 [10]: 4 min
5 | 6 | 4.54 | – | – | – | – | – | – | – | – | – | – | – | – | – | – | – | – | – | – | B2 | –
6 | – | – | 13.8 | 2 | 0.000601 | 300000 | 19 | 14.8 | 0.00657 | 444000 | 2 | 16.3 | 0.0118 | 726000 | 1 | 17.5 | 0.00304 | 174000 | 4 | 0.00432 | H1H268P Fab fragment (Fab, V domains shown, Fab made by papain digestion of H1H268P (IgG1); also called H1H268 Fab) VH: QVQLQESGAGLLKPSETLSLTCTVYGGSFSIHHWTWIRHPPGKGLEWIGEINHRGSTNYNPSLKSRVTISIDTSKNQFSLKLSAVTAADTAVYYCARGLRFLDWLSSYFDYWGQGTLVTVSS VL: DIQMTQSPSSLSASVGDRVTITCRASQGISDYLAWYQQKPGKVPNLLIYAASALQSGVPSRFSGSGSGTDFTLTISSLQPEDVATYYCQNYNTAPLTFGGGTKVEIK | kon [9]: 312000 M⁻¹ s⁻¹; t1/2 [9]: 3 min; Kd [10]: 6.42 nM; koff [10]: 0.00171 s⁻¹; kon [10]: 267000 M⁻¹ s⁻¹; t1/2 [10]: 7 min
